Measurements published in the supplement of paper PMC9112550, “Optimization of the antimicrobial peptide Bac7 by deep mutational scanning” (BMC Biology, 2022).

Tested on: Escherichia coli TOP10
Test: shrunken log2 fold change of peptide-encoding DNA abundance (4.5 h post-induction vs induction); higher = less antimicrobial activity (less host growth inhibition)
Conditions: time post-induction: 4.5 h; library: site-saturation at positions 5, 18, 19, 20
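Also: peptides expressed intracellularly from a pBAD plasmid library in pooled LB shake-flask culture, induced with 0.3% L-arabinose, DNA abundance read by NGS, three biological replicates, DESeq2 with apeglm shrinkage.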

RRIRTRPPRLPRPRPRPDQHPRP
shrunken log2 fold change: -0.626

RRIRTRPPRLPRPRPRPDQRPRP
shrunken log2 fold change: -0.0808

RRIRTRPPRLPRPRPRPDRCPRP
shrunken log2 fold change: -0.0274

RRIRTRPPRLPRPRPRPDRDPRP
shrunken log2 fold change: -0.126

RRIRTRPPRLPRPRPRPDSIPRP
shrunken log2 fold change: -0.0295

RRIRTRPPRLPRPRPRPDTGPRP
shrunken log2 fold change: -0.0906

RRIRTRPPRLPRPRPRPDTPPRP
shrunken log2 fold change: -0.193

RRIRTRPPRLPRPRPRPDTYPRP
shrunken log2 fold change: -0.202

RRIRTRPPRLPRPRPRPDYAPRP
shrunken log2 fold change: 0.0553

RRIRTRPPRLPRPRPRPDYDPRP
shrunken log2 fold change: 0.00888

RRIRTRPPRLPRPRPRPEAIPRP
shrunken log2 fold change: -0.00172

RRIRTRPPRLPRPRPRPECWPRP
shrunken log2 fold change: 0.53

RRIRTRPPRLPRPRPRPEDFPRP
shrunken log2 fold change: -0.00101

RRIRTRPPRLPRPRPRPEDGPRP
shrunken log2 fold change: 0.0244

RRIRTRPPRLPRPRPRPEEAPRP
shrunken log2 fold change: -0.0948

RRIRTRPPRLPRPRPRPEESPRP
shrunken log2 fold change: -0.0116

RRIRTRPPRLPRPRPRPEGDPRP
shrunken log2 fold change: 0.0354

RRIRTRPPRLPRPRPRPEGYPRP
shrunken log2 fold change: -0.104

RRIRTRPPRLPRPRPRPEHYPRP
shrunken log2 fold change: -0.0177

RRIRTRPPRLPRPRPRPEKMPRP
shrunken log2 fold change: 0.171

RRIRTRPPRLPRPRPRPEKVPRP
shrunken log2 fold change: -0.292

RRIRTRPPRLPRPRPRPELNPRP
shrunken log2 fold change: 0.195

RRIRTRPPRLPRPRPRPELPPRP
shrunken log2 fold change: 0.499

RRIRTRPPRLPRPRPRPELQPRP
shrunken log2 fold change: -0.0178

RRIRTRPPRLPRPRPRPENKPRP
shrunken log2 fold change: -0.178

RRIRTRPPRLPRPRPRPEPGPRP
shrunken log2 fold change: 0.0826

RRIRTRPPRLPRPRPRPEQNPRP
shrunken log2 fold change: 0.189

RRIRTRPPRLPRPRPRPERRPRP
shrunken log2 fold change: 0.0791

RRIRTRPPRLPRPRPRPERTPRP
shrunken log2 fold change: -0.0336

RRIRTRPPRLPRPRPRPETWPRP
shrunken log2 fold change: -0.0622

RRIRTRPPRLPRPRPRPEVNPRP
shrunken log2 fold change: 0.131

RRIRTRPPRLPRPRPRPEWCPRP
shrunken log2 fold change: 0.272

RRIRTRPPRLPRPRPRPEYIPRP
shrunken log2 fold change: 0.00825

RRIRTRPPRLPRPRPRPEYLPRP
shrunken log2 fold change: -0.0156

RRIRTRPPRLPRPRPRPFADPRP
shrunken log2 fold change: -0.112

RRIRTRPPRLPRPRPRPFAGPRP
shrunken log2 fold change: -0.0338

RRIRTRPPRLPRPRPRPFAQPRP
shrunken log2 fold change: -0.178

RRIRTRPPRLPRPRPRPFCPPRP
shrunken log2 fold change: -0.279

RRIRTRPPRLPRPRPRPFFAPRP
shrunken log2 fold change: 0.223

RRIRTRPPRLPRPRPRPFFFPRP
shrunken log2 fold change: 0.0893

RRIRTRPPRLPRPRPRPFGGPRP
shrunken log2 fold change: -0.0397

RRIRTRPPRLPRPRPRPFHPPRP
shrunken log2 fold change: -0.335

RRIRTRPPRLPRPRPRPFIIPRP
shrunken log2 fold change: -0.919

RRIRTRPPRLPRPRPRPFIKPRP
shrunken log2 fold change: -0.57

RRIRTRPPRLPRPRPRPFKGPRP
shrunken log2 fold change: -0.264

RRIRTRPPRLPRPRPRPFLCPRP
shrunken log2 fold change: -0.978

RRIRTRPPRLPRPRPRPFLMPRP
shrunken log2 fold change: -0.378

RRIRTRPPRLPRPRPRPFNQPRP
shrunken log2 fold change: -0.163

RRIRTRPPRLPRPRPRPFQEPRP
shrunken log2 fold change: 0.00783

RRIRTRPPRLPRPRPRPFRPPRP
shrunken log2 fold change: 0.0775

RRIRTRPPRLPRPRPRPFTIPRP
shrunken log2 fold change: -0.293

RRIRTRPPRLPRPRPRPFTSPRP
shrunken log2 fold change: -0.0603

RRIRTRPPRLPRPRPRPFVKPRP
shrunken log2 fold change: -0.838

RRIRTRPPRLPRPRPRPFVLPRP
shrunken log2 fold change: -0.296

RRIRTRPPRLPRPRPRPFVWPRP
shrunken log2 fold change: 0.00322

RRIRTRPPRLPRPRPRPFWMPRP
shrunken log2 fold change: -0.111

RRIRTRPPRLPRPRPRPGAEPRP
shrunken log2 fold change: 0.25

RRIRTRPPRLPRPRPRPGCGPRP
shrunken log2 fold change: 0.385

RRIRTRPPRLPRPRPRPGDAPRP
shrunken log2 fold change: 0.206

RRIRTRPPRLPRPRPRPGGEPRP
shrunken log2 fold change: 0.443

RRIRTRPPRLPRPRPRPGGIPRP
shrunken log2 fold change: 0.0232

RRIRTRPPRLPRPRPRPGIAPRP
shrunken log2 fold change: -0.0278

RRIRTRPPRLPRPRPRPGINPRP
shrunken log2 fold change: -0.324

RRIRTRPPRLPRPRPRPGIVPRP
shrunken log2 fold change: -0.184

RRIRTRPPRLPRPRPRPGMVPRP
shrunken log2 fold change: 0.279

RRIRTRPPRLPRPRPRPGNIPRP
shrunken log2 fold change: -0.0496

RRIRTRPPRLPRPRPRPGNKPRP
shrunken log2 fold change: -0.0505

RRIRTRPPRLPRPRPRPGNMPRP
shrunken log2 fold change: -0.0393

RRIRTRPPRLPRPRPRPGPAPRP
shrunken log2 fold change: 0.35

RRIRTRPPRLPRPRPRPGPMPRP
shrunken log2 fold change: 0.101

RRIRTRPPRLPRPRPRPGQGPRP
shrunken log2 fold change: 0.0576

RRIRTRPPRLPRPRPRPGRFPRP
shrunken log2 fold change: -0.0311

RRIRTRPPRLPRPRPRPGSDPRP
shrunken log2 fold change: 0.424

RRIRTRPPRLPRPRPRPGSQPRP
shrunken log2 fold change: 0.0756

RRIRTRPPRLPRPRPRPGTQPRP
shrunken log2 fold change: -0.036

RRIRTRPPRLPRPRPRPGVAPRP
shrunken log2 fold change: 0.639

RRIRTRPPRLPRPRPRPGVHPRP
shrunken log2 fold change: -0.055

RRIRTRPPRLPRPRPRPGVIPRP
shrunken log2 fold change: 0.0978

RRIRTRPPRLPRPRPRPGVYPRP
shrunken log2 fold change: -0.116

RRIRTRPPRLPRPRPRPGYLPRP
shrunken log2 fold change: 0.0359

RRIRTRPPRLPRPRPRPGYPPRP
shrunken log2 fold change: -0.197

RRIRTRPPRLPRPRPRPGYRPRP
shrunken log2 fold change: -0.0981

RRIRTRPPRLPRPRPRPGYVPRP
shrunken log2 fold change: -0.526

RRIRTRPPRLPRPRPRPHAWPRP
shrunken log2 fold change: 3.26

RRIRTRPPRLPRPRPRPHCNPRP
shrunken log2 fold change: -0.453

RRIRTRPPRLPRPRPRPHCVPRP
shrunken log2 fold change: -0.192

RRIRTRPPRLPRPRPRPHFIPRP
shrunken log2 fold change: -0.321

RRIRTRPPRLPRPRPRPHGGPRP
shrunken log2 fold change: 0.384

RRIRTRPPRLPRPRPRPHGSPRP
shrunken log2 fold change: -0.01

RRIRTRPPRLPRPRPRPHHEPRP
shrunken log2 fold change: -0.103

RRIRTRPPRLPRPRPRPHHHPRP
shrunken log2 fold change: -0.924

RRIRTRPPRLPRPRPRPHHWPRP
shrunken log2 fold change: -0.0973

RRIRTRPPRLPRPRPRPHIFPRP
shrunken log2 fold change: 2.13

RRIRTRPPRLPRPRPRPHKLPRP
shrunken log2 fold change: -0.236

RRIRTRPPRLPRPRPRPHKVPRP
shrunken log2 fold change: -0.00818

RRIRTRPPRLPRPRPRPHMGPRP
shrunken log2 fold change: -0.00538

RRIRTRPPRLPRPRPRPHMSPRP
shrunken log2 fold change: 0.0303

RRIRTRPPRLPRPRPRPHMWPRP
shrunken log2 fold change: -0.302

RRIRTRPPRLPRPRPRPHPQPRP
shrunken log2 fold change: -0.116

RRIRTRPPRLPRPRPRPHSHPRP
shrunken log2 fold change: -0.626

RRIRTRPPRLPRPRPRPHSPPRP
shrunken log2 fold change: -0.278

RRIRTRPPRLPRPRPRPHSSPRP
shrunken log2 fold change: -0.119

RRIRTRPPRLPRPRPRPHTCPRP
shrunken log2 fold change: -0.0347

RRIRTRPPRLPRPRPRPHTFPRP
shrunken log2 fold change: -0.431

RRIRTRPPRLPRPRPRPHTKPRP
shrunken log2 fold change: -0.0963

RRIRTRPPRLPRPRPRPHTPPRP
shrunken log2 fold change: 0.0178

RRIRTRPPRLPRPRPRPHVFPRP
shrunken log2 fold change: -0.119

RRIRTRPPRLPRPRPRPHVWPRP
shrunken log2 fold change: 0.272

RRIRTRPPRLPRPRPRPHWCPRP
shrunken log2 fold change: -0.00994

RRIRTRPPRLPRPRPRPHYDPRP
shrunken log2 fold change: -0.302

RRIRTRPPRLPRPRPRPHYQPRP
shrunken log2 fold change: -0.782

RRIRTRPPRLPRPRPRPIAIPRP
shrunken log2 fold change: -0.0261

RRIRTRPPRLPRPRPRPIAKPRP
shrunken log2 fold change: -0.3

RRIRTRPPRLPRPRPRPIAPPRP
shrunken log2 fold change: -0.0608

RRIRTRPPRLPRPRPRPICLPRP
shrunken log2 fold change: -0.14

RRIRTRPPRLPRPRPRPIDPPRP
shrunken log2 fold change: -0.201

RRIRTRPPRLPRPRPRPIEQPRP
shrunken log2 fold change: -0.00141

RRIRTRPPRLPRPRPRPIEVPRP
shrunken log2 fold change: 0.131

RRIRTRPPRLPRPRPRPIFRPRP
shrunken log2 fold change: 0.00202

RRIRTRPPRLPRPRPRPIHHPRP
shrunken log2 fold change: -0.124

RRIRTRPPRLPRPRPRPIHIPRP
shrunken log2 fold change: 0.0274

RRIRTRPPRLPRPRPRPIHWPRP
shrunken log2 fold change: 0.0444

RRIRTRPPRLPRPRPRPIIIPRP
shrunken log2 fold change: -0.219

RRIRTRPPRLPRPRPRPIIMPRP
shrunken log2 fold change: -0.305

RRIRTRPPRLPRPRPRPILQPRP
shrunken log2 fold change: -0.44

RRIRTRPPRLPRPRPRPIMKPRP
shrunken log2 fold change: -0.253

RRIRTRPPRLPRPRPRPINEPRP
shrunken log2 fold change: -0.405

RRIRTRPPRLPRPRPRPIPDPRP
shrunken log2 fold change: -0.32

RRIRTRPPRLPRPRPRPIPNPRP
shrunken log2 fold change: 0.0695

RRIRTRPPRLPRPRPRPIQRPRP
shrunken log2 fold change: 0.0582

RRIRTRPPRLPRPRPRPITEPRP
shrunken log2 fold change: -0.183

RRIRTRPPRLPRPRPRPIWKPRP
shrunken log2 fold change: 0.0742

RRIRTRPPRLPRPRPRPKEDPRP
shrunken log2 fold change: 0.262

RRIRTRPPRLPRPRPRPKEGPRP
shrunken log2 fold change: -0.0199

RRIRTRPPRLPRPRPRPKESPRP
shrunken log2 fold change: 0.0841

RRIRTRPPRLPRPRPRPKEYPRP
shrunken log2 fold change: -1.07

RRIRTRPPRLPRPRPRPKFEPRP
shrunken log2 fold change: 0.0721

RRIRTRPPRLPRPRPRPKFRPRP
shrunken log2 fold change: -0.204

RRIRTRPPRLPRPRPRPKGYPRP
shrunken log2 fold change: -0.0992

RRIRTRPPRLPRPRPRPKHWPRP
shrunken log2 fold change: 0.441

RRIRTRPPRLPRPRPRPKISPRP
shrunken log2 fold change: -0.932

RRIRTRPPRLPRPRPRPKLPPRP
shrunken log2 fold change: 0.214

RRIRTRPPRLPRPRPRPKLWPRP
shrunken log2 fold change: 0.401

RRIRTRPPRLPRPRPRPKMGPRP
shrunken log2 fold change: -0.0141

RRIRTRPPRLPRPRPRPKNFPRP
shrunken log2 fold change: -0.0884

RRIRTRPPRLPRPRPRPKNWPRP
shrunken log2 fold change: 0.183

RRIRTRPPRLPRPRPRPKPWPRP
shrunken log2 fold change: 0.363

RRIRTRPPRLPRPRPRPKQTPRP
shrunken log2 fold change: 0.204

RRIRTRPPRLPRPRPRPKRMPRP
shrunken log2 fold change: -0.157

RRIRTRPPRLPRPRPRPKSHPRP
shrunken log2 fold change: -0.365
